Source: publication PMC6443806 (Scientific Reports, 2019)

What was measured:
[1] = target: forkhead domain of human FoxP1, H59A mutant (human); experiment: SEC; isolated dimer diluted to 5 μM in standard buffer (20 mM HEPES, 150 mM NaCl, 2 mM β-mercaptoethanol) at pH 5.0, 37 °C, aliquots over 2 h on Superdex 75; dimer to monomers; Kd from the equilibrium dimer fraction, koff from a single exponential decay, kon derived from Kd = koff/kon
[2] = target: forkhead domain of human FoxP1, H59A mutant (human); experiment: SEC; isolated dimer diluted to 5 μM in standard buffer (20 mM HEPES, 150 mM NaCl, 2 mM β-mercaptoethanol) at pH 6.0, 37 °C, aliquots over 2 h on Superdex 75; dimer to monomers; Kd from the equilibrium dimer fraction, koff from a single exponential decay, kon derived from Kd = koff/kon
[3] = target: forkhead domain of human FoxP1, H59A mutant (human); experiment: SEC; isolated dimer diluted to 5 μM in standard buffer (20 mM HEPES, 150 mM NaCl, 2 mM β-mercaptoethanol) at pH 7.8, 37 °C, aliquots over 2 h on Superdex 75; dimer to monomers; Kd from the equilibrium dimer fraction, koff from a single exponential decay, kon derived from Kd = koff/kon
His59 [4] = target: T1, His59 (UniProt position 520, HNLSLHKCFVR); experiment: kinetics (SEC-monitored dimer dissociation) with Wyman-Tanford linkage analysis; settings: 37 °C, 150 mM NaCl, standard buffer (20 mM HEPES, 150 mM NaCl, 2 mM β-mercaptoethanol) adjusted to different pH values, DNA-free
His59 [5] = target: T1, His59; experiment: stability (GdmCl equilibrium unfolding followed by intrinsic Trp fluorescence) with Wyman-Tanford linkage analysis; settings: 37 °C, Not stated for the unfolding buffer (standard buffer contains 150 mM NaCl). GdmCl 0-6 M in the unfolding series., buffer at different pH values (composition not restated; standard buffer is 20 mM HEPES, 150 mM NaCl, 2 mM β-mercaptoethanol) supplemented with GdmCl, DNA-free
His54 = His54 (UniProt position 515, KNAVRHNLSLA); experiment: as above; settings: 37 °C, Not stated for the unfolding buffer (standard buffer contains 150 mM NaCl). GdmCl 0-6 M in the unfolding series., buffer at different pH values (composition not restated; standard buffer is 20 mM HEPES, 150 mM NaCl, 2 mM β-mercaptoethanol) supplemented with GdmCl, DNA-free
[6] = target: the molecule itself; experiment: SEC; isolated dimer diluted to 5 μM in standard buffer (20 mM HEPES, 150 mM NaCl, 2 mM β-mercaptoethanol) at pH 5.0, 37 °C, aliquots over 2 h on Superdex 75; dimer to monomers; Kd from the equilibrium dimer fraction, koff from a single exponential decay, kon derived from Kd = koff/kon
[7] = target: the molecule itself; experiment: SEC; isolated dimer diluted to 5 μM in standard buffer (20 mM HEPES, 150 mM NaCl, 2 mM β-mercaptoethanol) at pH 5.5, 37 °C, aliquots over 2 h on Superdex 75; dimer to monomers; Kd from the equilibrium dimer fraction, koff from a single exponential decay, kon derived from Kd = koff/kon
[8] = target: the molecule itself; experiment: SEC; isolated dimer diluted to 5 μM in standard buffer (20 mM HEPES, 150 mM NaCl, 2 mM β-mercaptoethanol) at pH 6.0, 37 °C, aliquots over 2 h on Superdex 75; dimer to monomers; Kd from the equilibrium dimer fraction, koff from a single exponential decay, kon derived from Kd = koff/kon
[9] = target: the molecule itself; experiment: SEC; isolated dimer diluted to 5 μM in standard buffer (20 mM HEPES, 150 mM NaCl, 2 mM β-mercaptoethanol) at pH 7.0, 37 °C, aliquots over 2 h on Superdex 75; dimer to monomers; Kd from the equilibrium dimer fraction, koff from a single exponential decay, kon derived from Kd = koff/kon
[10] = target: the molecule itself; experiment: SEC; isolated dimer diluted to 5 μM in standard buffer (20 mM HEPES, 150 mM NaCl, 2 mM β-mercaptoethanol) at pH 7.8, 37 °C, aliquots over 2 h on Superdex 75; dimer to monomers; Kd from the equilibrium dimer fraction, koff from a single exponential decay, kon derived from Kd = koff/kon
[11] = monomeric folding intermediate (I)

## forkhead domain of human FoxP1, H59A mutant (domain or fragment)
[1]
  Kd: 7.9 µM
  koff: 0.000988 s⁻¹
  kon: 125 M⁻¹ s⁻¹
[2]
  Kd: 5.9 µM
  koff: 0.000628 s⁻¹
  kon: 107 M⁻¹ s⁻¹
[3]
  Kd: 7.5 µM
  koff: 0.000723 s⁻¹
  kon: 96.7 M⁻¹ s⁻¹

## Forkhead box protein P1 (FoxP1), forkhead DNA-binding domain, wild type (Homo sapiens)
His59 [4]; domain-swapped dimer (D)
  pKa: 5.5
His59 [4]; monomer (M)
  pKa: 7.3
His59 [4]; transition state (‡) for domain swapping
  pKa: 5.5
His59 [5]; [11]
  pKa: 5.7
His59 [5]; unfolded state (U)
  pKa: 7.7

## Forkhead box protein P1 (FoxP1), forkhead DNA-binding domain, H59A mutant (Homo sapiens; H59A)
His54; [11]
  pKa: 5.3
His54; unfolded state (U)
  pKa: 5.9

B1: forkhead domain of human FoxP1, wild type (domain or fragment)
chain: AEVRPPFTYASLIRQAILESPEKQLTLNEIYNWFTRMFAYFRRNAATWKNAVRHNLSLHKCFVRVENVKGAVWTVDEVEFQKRRPQK
[6]
  Kd: 31.2 ± 0.3 µM
  koff: 0.00235 s⁻¹
  kon: 58.3 M⁻¹ s⁻¹
[7]
  Kd: 13.1 ± 0.2 µM
  koff: 0.000675 s⁻¹
  kon: 51.7 M⁻¹ s⁻¹
[8]
  Kd: 3.7 ± 0.3 µM
  koff: 0.000553 s⁻¹
  kon: 150 M⁻¹ s⁻¹
[9]
  Kd: 0.8 ± 0.1 µM
  koff: 0.00113 s⁻¹
  kon: 1340 M⁻¹ s⁻¹
[10]
  Kd: 0.6 ± 0.1 µM
  koff: 0.00106 s⁻¹
  kon: 1790 M⁻¹ s⁻¹
